Laboratory results taken from patent publication US20230322952A1 (BIOMUNEX PHARMACEUTICALS, published 2023).

T1: CD19 expressed on the cell surface of tumor cells (UniProt P15391 20-556, limits assumed)
T1 sequence (looked up): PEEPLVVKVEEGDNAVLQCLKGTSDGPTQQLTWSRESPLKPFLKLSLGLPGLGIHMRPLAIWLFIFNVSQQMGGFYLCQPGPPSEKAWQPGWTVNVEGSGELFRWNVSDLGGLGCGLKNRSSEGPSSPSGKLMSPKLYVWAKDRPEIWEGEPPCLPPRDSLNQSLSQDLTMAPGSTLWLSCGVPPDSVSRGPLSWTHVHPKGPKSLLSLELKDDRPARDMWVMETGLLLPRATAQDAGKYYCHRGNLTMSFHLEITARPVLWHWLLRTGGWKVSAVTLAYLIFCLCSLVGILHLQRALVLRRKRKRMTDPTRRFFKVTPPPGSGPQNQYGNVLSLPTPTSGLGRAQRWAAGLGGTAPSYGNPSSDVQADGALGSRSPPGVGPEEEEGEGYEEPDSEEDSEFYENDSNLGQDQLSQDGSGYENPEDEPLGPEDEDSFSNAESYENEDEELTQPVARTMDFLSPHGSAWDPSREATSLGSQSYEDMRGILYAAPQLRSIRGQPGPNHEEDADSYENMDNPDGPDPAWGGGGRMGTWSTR

B1: anti-CD19/anti-Vα7.2 Fab-Fab (bispecific antibody)
heavy: QVQLQQSGAELVRPGSSVKISCKASGYAFSSYWMNWVKQRPGQGLEWIGQIWPGDGDTNYNGKFKGKATLTADESSSTAYMQLSSLASEDSAVYFCARRETTTVGRYYYAMDYWGQGTTVTVSSASTKGPSVFPLAPSSKSTSGGTAALGCLVKDYFPEPVTVSWNSGALTSGVHTFPAVLQSSGLYSLSSVVDVPSSSLGTQTYICNVNHKPSNTKVDKRVEPKSCDKTHTAPPAPAPELLGGPAAPPAPAPAGGEVQLQQSGAELVKPGASVKLSCTASGFNIKDTHMHWVKQRPEQGLEWIGRTDPASGDTKYDPKFQGKATITADTSSNTAYLHLSSLTSEDTAVYYCAHYYRDDVNYAMDYWGQGTTVTVSSASTKGPSVFPQAPSSKSTSGGTAALGCLVKDYFPEPVTVSWNSGALTSGVHTFPAVLQSSGLYSLVSVVTVPSSSLGTQTYICNVNHKPSNTKVDKRVEPKSC
light 1: not shown
light 2: DIVMTQSQKFLSTSVGDRVSVTCKARQNVGSNVAWYQQKPGQSPKSLIYSSSFRYSGVPDRFTGSGSGTDFTLTISNVQSEDLAEYFCQQYNTYPYTFGGGTELEIKRTVAAPSVFIFPPSDEQLKSGTASVTCLLNNFYPREAKVQWKVDNALQSGNSQESVTEQDSKDSTYSLVSTLTLSKADYEKHKVYACEVTHQGLSSPVTKSFNRGEC
B2: anti-Vα7.2/anti-CD19 BiXAb (bispecific antibody, human IgG1, kappa, L234A L235A)
heavy: not shown
light 1: not shown
light 2: B1 light 2
B3: anti-CD19/anti-Vα7.2 BiXAb (bispecific antibody, human IgG1, kappa, L234A L235A)
heavy: not shown
light 1: not shown
light 2: B1 light 2
B4: anti-Vα7.2/anti-CD19 Fab-Fab (bispecific antibody)
heavy: EVQLQQSGAELVKPGASVKLSCTASGFNIKDTHMHWVKQRPEQGLEWIGRTDPASGDTKYDPKFQGKATITADTSSNTAYLHLSSLTSEDTAVYYCAHYYRDDVNYAMDYWGQGTTVTVSSASTKGPSVFPQAPSSKSTSGGTAALGCLVKDYFPEPVTVSWNSGALTSGVHTFPAVLQSSGLYSLVSVVTVPSSSLGTQTYICNVNHKPSNTKVDKRVEPKSCDKTHTAPPAPAPELLGGPAAPPAPAPAGGQVQLQQSGAELVRPGSSVKISCKASGYAFSSYWMNWVKQRPGQGLEWIGQIWPGDGDTNYNGKFKGKATLTADESSSTAYMQLSSLASEDSAVYFCARRETTTVGRYYYAMDYWGQGTTVTVSSASTKGPSVFPLAPSSKSTSGGTAALGCLVKDYFPEPVTVSWNSGALTSGVHTFPAVLQSSGLYSLSSVVDVPSSSLGTQTYICNVNHKPSNTKVDKRVEPKSC
light 1: not shown
light 2: B1 light 2
notes: Tandem Fab-Fab without Fc; anti-Vα7.2 Fab (from clone 3C10) at the N-terminus; also called Vα7.2/CD19 Fab-Fab

Assays:
[1] = target: T1, CD19 expressed on the cell surface of …; test: cell-based or functional assay
[2] = target: T2, Vα7.2 TCR chain expressed on Vα7.2+CD8+ MAIT cells (human); test: flow cytometry on Vα7.2+ cells among human CD8+ T cells
T2 construct: whole, on cells; also called TCR Vα7.2 chain; Vα7.2+ cells
T2 sequence (A0A0B4J238 19-106): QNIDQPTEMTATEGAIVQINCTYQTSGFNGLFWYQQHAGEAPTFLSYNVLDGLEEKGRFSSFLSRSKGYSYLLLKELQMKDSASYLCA
Method: The anti-Vα7.2/anti-CD19 Fab-Fab was then tested for binding on Vα7.2+CD8⁺ T cells. The assay was performed by flow cytometry. Human CD8⁺ T cells were isolated from purified peripheral blood mononuclear cells (PBMCs). Briefly, leukapheresis packs coming from healthy donors were centrifuged in ficoll gradients and the PBMCs were collected. CD8⁺ T cells were then isolated with a commercial negative selection kit (Miltenyi Biotec). These cells were then used to determine binding of anti-Vα7.2/anti-CD19 […] on Vα7.2⁺ cells. Cells were washed with PBS and stained with a Fixable Viability Dye (eFluor™ 780, ThermoFisher) and the human Fc Block reagent (BD) (in PBS for 25 min at 4° C.). The cells were then washed with FACS buffer (PBS, 2 mM EDTA, 0.5% BSA) and stained with different concentrations of anti-Vα7.2/anti-CD19 Fab-Fab (Table 3, shown in both nM and μg/ml) for 1 h at 4° C. An irrelevant Fab-Fab was used as a negative control. Following washing (5×), the cells were stained with a secondary goat anti-human antibody conjugated with Phycoerythrin (Jackson Immunoresearch) and an anti-CD8 antibody (Biolegend) for 45 min at 4° C. The cells were then analyzed in the MACSquant flow cytometer.
Depending on the donor, Vα7.2⁺ cells range between 1 to 10% of CD8⁺ T cells.

Row | Binder | percentage of CD19+ A-549 tumor cells lysis [1] [%] | EC50 [2] [nM]
1 | B1 | ≤ 30 | –
2 | B2 | ≤ 30 | –
3 | B3 | ≤ 30 | –
4 | B4 | ≤ 30 | 3.49
